{"source": "paper PMC8775495", "key": {"WA20_H86K": {"biological_target": "WA20_H86K", "assay": "not stated; in solution; shown in Figure S1, whose legend was not shown"}, "[1]": {"biological_target": "recombinant Agrocybe cylindracea galectin (Agrocybe cylindracea)", "assay": "not stated; in solution; shown in Figure S1, whose legend was not shown"}}}
{"substance": "WA20_H86K", "values": [{"measurement": "stoichiometry N", "setting": "WA20_H86K", "value": 2}]}
{"substance": "recombinant Agrocybe cylindracea galectin (natural protein)", "values": [{"measurement": "stoichiometry N", "setting": "[1]", "value": 2}]}
